These are literature values, as cited in paper PMC12860966.

One may read the Ki as the equilibrium dissociation constant of an inhibitor or competing ligand from its target.

In the data set the target is MMP-9 (Homo sapiens) (UniProt P14780).
Chain of UniProt P14780 (P14780 94-707): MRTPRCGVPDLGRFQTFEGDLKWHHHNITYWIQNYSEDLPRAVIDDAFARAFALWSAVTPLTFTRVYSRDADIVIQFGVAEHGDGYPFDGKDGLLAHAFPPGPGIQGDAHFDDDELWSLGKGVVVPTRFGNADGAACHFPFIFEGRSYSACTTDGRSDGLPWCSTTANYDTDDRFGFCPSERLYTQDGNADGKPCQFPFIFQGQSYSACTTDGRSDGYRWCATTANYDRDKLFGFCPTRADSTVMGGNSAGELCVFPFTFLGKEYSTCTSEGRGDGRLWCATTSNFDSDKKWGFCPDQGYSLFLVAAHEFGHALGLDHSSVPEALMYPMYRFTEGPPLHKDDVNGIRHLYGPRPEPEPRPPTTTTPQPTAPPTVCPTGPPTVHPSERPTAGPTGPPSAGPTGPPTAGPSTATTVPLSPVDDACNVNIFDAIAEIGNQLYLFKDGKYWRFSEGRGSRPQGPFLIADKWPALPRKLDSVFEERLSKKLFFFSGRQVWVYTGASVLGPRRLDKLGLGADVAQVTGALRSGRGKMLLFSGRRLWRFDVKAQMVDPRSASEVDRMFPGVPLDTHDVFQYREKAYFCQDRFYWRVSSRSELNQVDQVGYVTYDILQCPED

In the case of TIMP-1 (from UniProt P01033), the Ki was 3.36 nM.
